{
  "source": "patent US10100120B2",
  "about": "“Antibody which specifically binds to human CRTH2” (KYOWA HAKKO KIRIN CO., LTD, priority 2015, dated 2018)",
  "molecules": {"B1": {"name": "LV0HV1: humanized Lym2 antibody, VL LV0 (SEQ ID NO: 33), VH HV1 (SEQ ID NO: 51) (antibody, V domains shown)", "VH": "EVQLVESGGGVVQPGRSLRLSCAASGFTFSNYYMAWVRQAPGKGLEWVATISYDGSSTYYRDSVKGRFTISRDNAKNSLYLQMNSLRAEDTATYYCARHRGYYYSGAGYFDYWGQGTMVTVSS", "VL": "DIVMTQTPLSLPVTPGESASISCRSSQSLEYSDGYTYLEWYLQKPGQSPQVLIYGVSNRFSGVPDRFSGSGSGTDFTLKISRVEAEDVGVYYCFQATHDPLTFGQGTKLEIK"}},
  "key": {"cynomolgus monkey CRTH2": {"test_system": "cynomolgus monkey CRTH2", "sequence (as listed by the source)": "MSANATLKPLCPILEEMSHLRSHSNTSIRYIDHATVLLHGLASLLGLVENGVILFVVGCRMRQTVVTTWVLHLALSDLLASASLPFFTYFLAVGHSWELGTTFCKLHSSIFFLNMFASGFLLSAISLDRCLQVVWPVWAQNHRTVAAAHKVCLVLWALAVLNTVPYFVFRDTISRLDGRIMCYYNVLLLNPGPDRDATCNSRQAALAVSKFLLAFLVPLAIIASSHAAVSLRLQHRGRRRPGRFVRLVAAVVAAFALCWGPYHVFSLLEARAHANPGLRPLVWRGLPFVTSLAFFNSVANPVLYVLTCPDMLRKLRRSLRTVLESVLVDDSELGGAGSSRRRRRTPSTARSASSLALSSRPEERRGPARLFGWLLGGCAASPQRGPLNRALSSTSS", "assay": "Binding activity against Azami-Green fusion cynomolgus monkey CRTH2-expressing CHO/DG44 cells", "conditions": "2-30000 ng/mL, compared with human CRTH2; FIG. 21", "method": "(§1) The Azami-Green fusion human CRTH2-expressing CHO/DG44 cells and the cynomolgus monkey CRTH2-expressing CHO/DG44 cells established in Example 24 were peeled using 0.02% EDTA solution (NACALAI TESQUE, Inc.), washed with PBS, and suspended with SM. Next, the cells were seeded in a 96-well plate such that each well had 2×10^5 cells, and humanized Lym2 antibody LV0HV1 or the anti-DNP IgG1 antibody at each of final concentrations 30000, 7500, 1875, 469, 117, 29, 7, and 2 ng/mL were added thereto to cause a reaction at 4° C. for 40 minutes.\n(§2) After the cells were washed three times with SM, goat anti-Human IgG alexa 647 (Molecular Probes) diluted to a concentration of 10 μg/mL with SM was added thereto at 100 μL/well to perform a reaction at 4° C. for 40 minutes. The cells were washed with SM and resuspended with 100 μL of SM, and the fluorescent intensity was measured by flow cytometry (BD Biosciences, FACS CantoII).\n(§3) The data was analyzed by FLowJo 7.65 (Tomy Digital Biology Co., Ltd.)."}, "human CRTH2 [1]": {"molecular_target": "T1, human CRTH2 (Homo sapiens, UniProt Q9Y5Y4)", "T1 construct": "expressed in transfected cells", "T1 sequence (Q9Y5Y4 1-395)": "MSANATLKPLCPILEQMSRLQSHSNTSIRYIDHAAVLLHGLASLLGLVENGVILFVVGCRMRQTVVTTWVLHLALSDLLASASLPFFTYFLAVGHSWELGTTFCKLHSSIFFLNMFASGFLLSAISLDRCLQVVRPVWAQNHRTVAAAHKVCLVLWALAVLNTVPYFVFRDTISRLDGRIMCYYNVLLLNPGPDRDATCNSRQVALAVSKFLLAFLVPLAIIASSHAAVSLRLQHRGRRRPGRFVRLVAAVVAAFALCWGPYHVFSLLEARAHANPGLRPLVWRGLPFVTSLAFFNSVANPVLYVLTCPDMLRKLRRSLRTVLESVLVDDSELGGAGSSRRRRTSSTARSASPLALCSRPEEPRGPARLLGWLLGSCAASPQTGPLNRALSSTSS", "assay": "ELISA reactivity against membrane fractions of human CRTH2-expressing CHO/DG44 cells with GTPγS or GDP treatment", "type": "binding", "conditions": "HRP-labeled antibody, FIG. 19", "method": "Humanized Lym2 antibody LV0HV1 and hu19A2 v52 were directly labeled with HRP using Peroxidase Labeling Kit-NH2 (Dojindo Molecular Technologies, Inc.) according to the attached document and diluted to 1 mg/mL with D-PBS (−) (NACALAI TESQUE, Inc.).\nThe human CRTH2-expressing CHO/DG44 cells established in Example 1 were peeled using 0.02% EDTA solution (NACALAI TESQUE, Inc.) and the cells were washed with D-PBS (−) cooled to 4° C. The membrane fractions were prepared using Minute Plasma Membrane Protein Isolation Kit (Invent Biotechnologies) according to the attached document.\n50 mM Tris-HCl buffer pH 7.4 (NACALAI TESQUE, Inc.) to which 50 mM HEPES (GIBCO Inc.), 5 mM MgCl2 (NACALAI TESQUE, Inc.), 100 mM NaCl (NACALAI TESQUE, Inc.), and 1 mM EDTA (Invitrogen) were added (hereinafter, referred to as an ELISA reaction solution) was added to the membrane fractions prepared in (2) to have a concentration of 1 mg/mL, and the mixture was added to PROTEOSAVE 1.5 mL Microtubes (Sumitomo Bakelite Co., Ltd.) at 50 μL/tube.\nNext, an ELISA reaction solution to which 500 μM GTPγS (Roche Diagnostics K.K.) or 500 μM GDP (Sigma-Aldrich Co. LLC) was added was added to the microtubes at 50 μL/tube for incubation at 30° C. for 1 hour. […]\nThe absorbance at 480 nm was measured by SPECTRA max 340PC and the obtained result was analyzed using Graphpad Prism (ver. 6.05). […]"}, "human CRTH2 [2]": {"molecular_target": "T1, human CRTH2", "assay": "Binding activity against Azami-Green fusion human CRTH2-expressing CHO/DG44 cells", "conditions": "2-30000 ng/mL, compared with monkey CRTH2; FIG. 21", "method": "as §1, §2, §3"}},
  "data": [
    {"molecule": "B1", "values": [
      {"measurement": "binding activity against monkey CRTH2", "setting": "cynomolgus monkey CRTH2", "result": "substantially the same as each other"},
      {"measurement": "reactivity with respect to membrane fractions at GDP treatment compared to GTPγS treatment", "setting": "human CRTH2 [1]", "result": "not changed"},
      {"measurement": "binding activity against human CRTH2", "setting": "human CRTH2 [2]", "result": "substantially the same as each other"}
    ]}
  ]
}
